Assay [1] addresses human CD28 in its native form displayed on the cell surface (human, UniProt P10747 19-220). The assay can be described thus: cell-based or functional assay.
For assay [2], the target named is T1, mouse CD28 recombinant protein (mouse, UniProt P31041 20-150, limits assumed).
T1 construct: Bought recombinant protein
The experiment in a line: ELISA on coated mouse CD28, absorbance (blank corrected). How it is done:
(§1) For ELISA binding assays, 384 well or 96 well plates were coated with 1 ug/ml and incubated overnight at 4° C., protected from light. Plates were washed twice with PBS/0.05% Tween 20 before blocking with block buffer (3% milk protein in PBS) for 1 hour at room temperature. Next, test agent or controls were loaded and incubated for 1 hour at room temperature. Plates were then washed three times with PBS/0.05% Tween 20. Finally, HRP conjugated secondary antibody, diluted 1/5,000 in block buffer, was added and incubated for 1 hour at room temperature. Plates were again washed three times with PBS/0.05% Tween before addition of TMB substrate and incubation for 6 minutes at room temperature. Subsequently, the reaction was stopped with stop solution. Absorbance was read at 450 nm and 570 nm. Absorbance at 570 nm was subtracted from absorbance at 450 nm for each plate.
A general note: An ELISA detects its analyte on a solid surface through an enzyme-linked reagent.

The target in assay [3] is T1, mouse CD28 recombinant protein. The assay can be described thus: SPR (Biacore 8K), CD28 captured on an anti-His surface, Fab as analyte. The procedure: (§2) In order to assess the binding of test Fabs to human or mouse CD28 (Acro Biosystems, Newark, USA), multi-cycle kinetic analysis was performed at 25° C. on a Biacore® 8K (serial no. 2724204) HBS-P+ (Cytiva, Marlborough, USA) supplemented with 0.1% BSA (Sigma, Dorset, UK) was used as running buffer as well as for ligand and analyte dilutions. CD28 proteins were diluted to 1.0 μg/mL in running buffer and at the start of each cycle loaded onto Fc2, of a series S CM5 chip (Cytiva, Marlborough, USA) previously coupled with an anti-His capture antibody (Cytiva, Marlborough, USA) using standard amine chemistry. Ligand was captured at a flow rate of 10 μl/min to give an immobilization level (RL) of ~60 RU. The surface was then allowed to stabilize. Multi-cycle kinetic data was obtained antigens as the analyte injected at a flow rate of 30 μl/min to try and minimize any potential mass transfer effects. A 9 point 2-fold dilution of purified Fab titrated from 0.39 nM to 100 nM was prepared in running buffer for Fab proteins. For each concentration, the association phases were monitored for 240 seconds, and the dissociation phase was measured for 900 seconds. […] Binding was analysed using 1:1 binding analysis due to the high affinity interaction between the antibody and antigen. The data was analysed using a procedure referred to as double referencing. […]
Background: SPR reads the build-up and loss of mass on a sensor chip optically.

Assay [4] concerns the target T2, human/cyno recombinant CD28 protein (human (printed as human/cyno), UniProt P10747 19-152).
T2 construct: Bought recombinant protein; also called human recombinant CD28; human/cyno CD28
The experiment in a line: SPR (Biacore 8K), CD28 captured on an anti-His surface, Fab as analyte, multi-cycle kinetics, 1:1 fit. How it is done:
In order to assess the binding of test Fabs to human or mouse CD28 (Acro Biosystems, Newark, USA), multi-cycle kinetic analysis was performed at 25° C. on a Biacore® 8K (serial no. 2724204) HBS-P+ (Cytiva, Marlborough, USA) supplemented with 0.1% BSA (Sigma, Dorset, UK) was used as running buffer as well as for ligand and analyte dilutions. CD28 proteins were diluted to 1.0 μg/mL in running buffer and at the start of each cycle loaded onto Fc2, of a series S CM5 chip (Cytiva, Marlborough, USA) previously coupled with an anti-His capture antibody (Cytiva, Marlborough, USA) using standard amine chemistry. Ligand was captured at a flow rate of 10 μl/min to give an immobilization level (RL) of ~60 RU. The surface was then allowed to stabilize. Multi-cycle kinetic data was obtained antigens as the analyte injected at a flow rate of 30 μl/min to try and minimize any potential mass transfer effects. A 9 point 2-fold dilution of purified Fab titrated from 0.39 nM to 100 nM was prepared in running buffer for Fab proteins. For each concentration, the association phases were monitored for 240 seconds, and the dissociation phase was measured for 900 seconds. Regeneration of the sensor chip surface was conducted between cycles using 10 mM glycine pH 2.1. Multiple repeats of a blank and of antigen were programmed into the kinetic run, in order to check the stability of both the surface and analyte over the kinetic cycles. The signal from the reference Fc1 (no ligand captured) was subtracted from that of Fc2 to correct for bulk effect and differences in non-specific binding to a reference surface. The signal from each blank run (ligand captured but no antigen) was subtracted to correct for differences in surface stability. Binding was analysed using 1:1 binding analysis due to the high affinity interaction between the antibody and antigen. The data was analysed using a procedure referred to as double referencing. This refers to the process of first subtracting the reference channel response (Fc1) and then subtracting the zero concentration sensorgram to compensate for bulk effects, baseline drift and small differences between the reference and the active channel.

Assay [5] has as its target T2, human/cyno recombinant CD28 protein. The assay can be described thus: SPR (Biacore 8K, 25 C), CD28 captured by anti-His antibody, Fab as analyte, 1:1 fit; Fab_001 (CD28 TGN derived sequence). How it is done: as §2
The target is the same in assay [6]. The experiment in a line: SPR (Biacore 8K, 25 C), CD28 captured by anti-His antibody, Fab as analyte, 1:1 fit; Fab_002. How it is done: as §2
Assay [7] has the same target. The experiment in a line: ELISA on coated huCD28, corrected absorbance (A450-570 nm). The procedure:
as §1
To assess the ability of undigested fully intact and MMP12 incubated proteins to interact with CD28, binding ELISAs to recombinant human CD28 domain were carried out. In parallel, purified IgG_001 and IgG_002 proteins were used as positive controls while isotype binding was used as negative control.

B1: IgG_001 (antibody, V domains shown)
VH: QVQLVQSGAEVKKPGASVKVSCKASGYTFTSYYIHWVRQAPGQGLEWIGSIYPGNVNTNYNEKEKDRATLTVDTSISTAYMELSRLRSDDTAVYFCTRSHYGLDWNFDVWGQGTTVTVSS
VL: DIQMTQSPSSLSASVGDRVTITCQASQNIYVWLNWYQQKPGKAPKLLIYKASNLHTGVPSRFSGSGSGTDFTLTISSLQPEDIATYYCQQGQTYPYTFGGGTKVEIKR
notes: also called TGN derived CD28 V domain IgG_001 on IgG1-Fc isotype
As for B1, the “mean IL2 secretion, PBMC of 20 donors on plate-coated protein, 72 h” value in assay [1] was approximately 2000 pg/mL. Besides, the binding result in assay [2] is recorded as “no binding (tested: about 300 nM)”.

B2: Anti-CD28 Fab-001 (Fab, V domains shown)
VH: QVQLVQSGAEVKKPGASVKVSCKASGYTFTSYYIHWVRQAPGQGLEWIGSIYPGNVNTNYNEKEKDRATLTVDTSISTAYMELSRLRSDDTAVYFCTRSHYGLDWNFDVWGQGTTVTVSS
VL: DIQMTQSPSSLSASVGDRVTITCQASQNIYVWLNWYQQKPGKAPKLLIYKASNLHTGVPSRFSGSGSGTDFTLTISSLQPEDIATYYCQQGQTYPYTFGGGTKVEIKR
notes: Monovalent Fab
For B2, the binding result in assay [3] is given as “no binding”. For the same molecule, in assay [4], the dissociation constant Kd (in general, the equilibrium constant for the complex coming apart) came to 0.593 nM; the koff – broadly, a measure of how fast the partners let go of each other – was 0.00027 s⁻¹; the association rate constant (kon) (as a rule, the rate constant with which the complex forms) was determined as 455000 M⁻¹ s⁻¹. Moreover, the Kd in assay [5] was 0.59 nM.

B3: Fab_002 (Fab, V domains shown)
VH: QVQLQQSGAELKKPGASVKVSCKASGYTFTEYIIHWIKLRSGQGLEWIGWFYPGSNDIQYNAQFKGKATLTADKSSSTVYMELTGLTPEDSAVYFCARRDDFSGYDALPYWGQGTLVTVSA
VL: DIQMTQSPSSLSASVGDRVTITCKTNENIYSNLAWYQQKDGKSPQLLIYAATHLVEGVPSRFSGSGSGTQYSLTISSLQPEDFGNYYCQHFWGTPCTFGGGTKLEIKR
notes: also called Anti-CD28-2 Fab
In the case of B3, the binding result in assay [3] was “no binding”. Moreover, in assay [6], the Kd was determined as 0.53 nM. Further, in assay [4], the Kd was 0.532 nM, the koff is 0.000241 s⁻¹ and the kon turned out to be 454000 M⁻¹ s⁻¹.

B4: IgG_002 (antibody, V domains shown)
VH: QVQLQQSGAELKKPGASVKVSCKASGYTFTEYIIHWIKLRSGQGLEWIGWFYPGSNDIQYNAQFKGKATLTADKSSSTVYMELTGLTPEDSAVYFCARRDDFSGYDALPYWGQGTLVTVSA
VL: DIQMTQSPSSLSASVGDRVTITCKTNENIYSNLAWYQQKDGKSPQLLIYAATHLVEGVPSRFSGSGSGTQYSLTISSLQPEDFGNYYCQHFWGTPCTFGGGTKLEIKR
notes: also called non superagonist CD28 IgG
B4: the binding result in assay [2] is given as “no binding (tested: about 300 nM)”.

B5: LPD28-3, intact (bispecific antibody, human IgG1, kappa)
heavy: not shown
light: not shown
chain: SCPPCPAPEAAGAPSVFLFPPKPKDTLMISRTPEVTCVVVDVSHEDPEVKFNWYVDGVEVHNAKTKPREEQYNSTYRVVSVLTVLHQDWLNGKEYKCKVSNKALPAPIEKTISKAKGQPREPQVCTLPPSRDELTKNQVSLSCAVKGFYPSDIAVEWESNGQPENNYKTTPPVLDSDGSFFLVSKLTVDKSRWQQGNVFSCSVMHEALHNHYTQKSLSLSPGK
notes: Asymmetric one arm construct: anti-PD-L1 Fab above anti-CD28-2 Fab; also called undigested LPD28-3; LPD28-3 (0 min)
Regarding B5, the binding result in assay [7] is “binds”.

(Values after patent publication US20260201039A1 (CENTESSA PHARMACEUTICALS UK, published 2026).)
